Source: publication PMC7439702

Target: AbmU (Streptomyces koyangensis SCSIO 5802)
Assay: crystal structure

Substance: AbmU (enzyme)
- stoichiometry N: 2
